Among the data in WO2021028359A1 are fold of CD69 activation of Tregs, hFXP3-driven CAR, 24 h with autologous B cells and fold of CD69 activation of Tregs, hPGK-driven CAR (TX028), 24 h with autologous B cells values, retold here.

In this test the target is CD20 on autologous CD19+CD20+ B cells (human) (UniProt P11836). In words: cell-based or functional assay.

Several values for one entry are separate records, joined by “and”; a condition that tells them apart may be missing. Equal values may be shown once.

Chain of CD20 on autologous CD19+CD20+ B cells (human) (P11836 whole entry): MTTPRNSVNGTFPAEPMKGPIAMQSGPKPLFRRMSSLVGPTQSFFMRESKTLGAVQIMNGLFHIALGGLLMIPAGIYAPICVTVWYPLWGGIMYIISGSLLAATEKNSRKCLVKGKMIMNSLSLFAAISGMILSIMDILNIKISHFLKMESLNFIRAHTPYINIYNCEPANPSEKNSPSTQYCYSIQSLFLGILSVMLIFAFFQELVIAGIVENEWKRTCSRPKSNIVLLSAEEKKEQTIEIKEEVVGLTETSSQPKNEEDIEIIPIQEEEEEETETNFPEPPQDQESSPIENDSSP

“CD20 CAR (CD8 leader, scFv directed against CD20 (B9E9), streptavidin tag, CD8 alpha linker and transmembrane domain, 4-1BB activation domain, CD3 zeta activation domain) (receptor)”: the fold of CD69 activation of Tregs, hFXP3-driven CAR, 24 h with autologous B cells was 1.9 fold and 1.8 fold; the fold of CD69 activation of Tregs, hPGK-driven CAR (TX028), 24 h with autologous B cells came to 1.5 fold.
